Paper PMC7728438
Blank lines part the entries; values can stand above or below the substance they belong to.

Columns and labels:
[1] = molecular target: PC-2 F604P (human polycystin-2 with the gain of function mutation F604P) (human) (UniProt Q13563)
[2] = molecular target: PC-1^deltaNT/PC-2_(F604P) heteromer (UniProt P98161)
[3] = molecular target: native heteromeric PC-1/PC-2 polycystin complex of mIMCD-3 primary cilia (mouse (endogenous in mIMCD-3)) (UniProt O08852)
[4] = molecular target: native heteromeric PC-1/PC-2 polycystin complex of mIMCD-3 primary cilia (mouse (endogenous in mIMCD-3)) (UniProt O08852); remark: listed apart in the source

Sequence of PC-2 F604P (human polycystin-2 with the gain of function mutation F604P) (human) (Q13563 whole entry F604P): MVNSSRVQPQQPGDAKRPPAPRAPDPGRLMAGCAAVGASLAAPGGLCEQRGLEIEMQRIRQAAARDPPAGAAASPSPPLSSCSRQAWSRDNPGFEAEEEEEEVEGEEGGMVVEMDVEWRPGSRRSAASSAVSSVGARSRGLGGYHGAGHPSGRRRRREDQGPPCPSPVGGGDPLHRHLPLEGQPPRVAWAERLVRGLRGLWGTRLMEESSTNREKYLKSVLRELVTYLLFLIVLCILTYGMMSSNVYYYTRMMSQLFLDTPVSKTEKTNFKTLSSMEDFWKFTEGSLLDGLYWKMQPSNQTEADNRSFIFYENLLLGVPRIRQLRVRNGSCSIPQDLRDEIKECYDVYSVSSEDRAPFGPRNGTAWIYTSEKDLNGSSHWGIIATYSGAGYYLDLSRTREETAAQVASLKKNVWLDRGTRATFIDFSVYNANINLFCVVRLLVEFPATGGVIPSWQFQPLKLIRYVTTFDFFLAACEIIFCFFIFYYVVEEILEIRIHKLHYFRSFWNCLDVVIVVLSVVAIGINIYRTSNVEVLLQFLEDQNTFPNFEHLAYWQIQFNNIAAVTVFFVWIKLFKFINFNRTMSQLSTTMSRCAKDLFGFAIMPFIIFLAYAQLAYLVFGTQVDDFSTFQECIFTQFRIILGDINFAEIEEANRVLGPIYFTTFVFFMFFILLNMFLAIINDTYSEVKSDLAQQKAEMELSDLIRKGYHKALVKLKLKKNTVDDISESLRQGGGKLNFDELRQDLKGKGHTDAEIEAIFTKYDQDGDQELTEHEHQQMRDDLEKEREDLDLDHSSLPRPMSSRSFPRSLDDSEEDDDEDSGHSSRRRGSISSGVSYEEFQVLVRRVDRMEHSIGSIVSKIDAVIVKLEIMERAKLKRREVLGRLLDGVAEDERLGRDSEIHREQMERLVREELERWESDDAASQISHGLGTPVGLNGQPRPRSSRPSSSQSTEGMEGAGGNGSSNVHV
Sequence of PC-1 N-terminal fragment NTF^263-535 (P98161 263-535): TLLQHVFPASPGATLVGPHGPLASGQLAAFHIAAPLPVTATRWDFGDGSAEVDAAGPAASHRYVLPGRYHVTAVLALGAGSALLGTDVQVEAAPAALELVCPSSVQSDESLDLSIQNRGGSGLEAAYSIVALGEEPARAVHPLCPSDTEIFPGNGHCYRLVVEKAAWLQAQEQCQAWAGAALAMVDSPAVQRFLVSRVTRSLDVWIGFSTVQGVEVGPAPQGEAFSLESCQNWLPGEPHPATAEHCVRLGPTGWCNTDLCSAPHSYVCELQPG
Sequence of PC-1^deltaNT/PC-2_(F604P) heteromer (P98161 other isoform, or with tags, fused parts or gaps F604P | F604P, chain 1 of 2): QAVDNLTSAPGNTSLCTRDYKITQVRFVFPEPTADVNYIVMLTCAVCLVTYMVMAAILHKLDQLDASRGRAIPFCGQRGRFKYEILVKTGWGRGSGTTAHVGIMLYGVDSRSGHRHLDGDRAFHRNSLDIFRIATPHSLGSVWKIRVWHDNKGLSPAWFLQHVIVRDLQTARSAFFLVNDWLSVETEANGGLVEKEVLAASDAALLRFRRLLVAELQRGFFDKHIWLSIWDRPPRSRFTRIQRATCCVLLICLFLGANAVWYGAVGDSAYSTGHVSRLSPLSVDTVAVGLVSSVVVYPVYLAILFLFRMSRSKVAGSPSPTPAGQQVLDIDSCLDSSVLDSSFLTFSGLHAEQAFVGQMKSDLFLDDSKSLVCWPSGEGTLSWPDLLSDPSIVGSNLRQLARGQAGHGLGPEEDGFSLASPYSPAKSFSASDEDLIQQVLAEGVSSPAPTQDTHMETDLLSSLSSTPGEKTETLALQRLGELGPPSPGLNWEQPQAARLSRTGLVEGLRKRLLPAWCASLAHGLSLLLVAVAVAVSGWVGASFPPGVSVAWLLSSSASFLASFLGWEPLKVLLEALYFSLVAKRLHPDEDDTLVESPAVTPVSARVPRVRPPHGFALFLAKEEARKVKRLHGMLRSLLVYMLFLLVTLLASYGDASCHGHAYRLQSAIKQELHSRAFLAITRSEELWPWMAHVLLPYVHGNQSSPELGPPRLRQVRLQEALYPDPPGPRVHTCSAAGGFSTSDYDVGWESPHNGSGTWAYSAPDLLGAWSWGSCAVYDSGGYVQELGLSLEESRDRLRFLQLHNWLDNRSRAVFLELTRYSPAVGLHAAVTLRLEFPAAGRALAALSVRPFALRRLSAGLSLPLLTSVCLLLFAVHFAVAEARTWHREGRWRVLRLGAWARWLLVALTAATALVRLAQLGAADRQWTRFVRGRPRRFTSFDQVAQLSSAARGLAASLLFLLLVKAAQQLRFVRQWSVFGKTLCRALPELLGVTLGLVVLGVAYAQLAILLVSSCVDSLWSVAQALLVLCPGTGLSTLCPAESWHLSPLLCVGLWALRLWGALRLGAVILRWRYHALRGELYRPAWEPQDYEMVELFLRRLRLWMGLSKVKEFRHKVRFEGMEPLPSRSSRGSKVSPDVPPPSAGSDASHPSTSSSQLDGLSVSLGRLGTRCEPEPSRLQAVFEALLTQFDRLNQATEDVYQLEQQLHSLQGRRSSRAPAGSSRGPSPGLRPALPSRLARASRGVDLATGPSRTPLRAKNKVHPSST
Sequence of PC-1^deltaNT/PC-2_(F604P) heteromer (Q13563 whole entry F604P, chain 2 of 2, further chain): as the sequence (Q13563 whole entry F604P) above
Sequence of PC-1 N-terminal fragment NTF^24-852 (P98161 24-852): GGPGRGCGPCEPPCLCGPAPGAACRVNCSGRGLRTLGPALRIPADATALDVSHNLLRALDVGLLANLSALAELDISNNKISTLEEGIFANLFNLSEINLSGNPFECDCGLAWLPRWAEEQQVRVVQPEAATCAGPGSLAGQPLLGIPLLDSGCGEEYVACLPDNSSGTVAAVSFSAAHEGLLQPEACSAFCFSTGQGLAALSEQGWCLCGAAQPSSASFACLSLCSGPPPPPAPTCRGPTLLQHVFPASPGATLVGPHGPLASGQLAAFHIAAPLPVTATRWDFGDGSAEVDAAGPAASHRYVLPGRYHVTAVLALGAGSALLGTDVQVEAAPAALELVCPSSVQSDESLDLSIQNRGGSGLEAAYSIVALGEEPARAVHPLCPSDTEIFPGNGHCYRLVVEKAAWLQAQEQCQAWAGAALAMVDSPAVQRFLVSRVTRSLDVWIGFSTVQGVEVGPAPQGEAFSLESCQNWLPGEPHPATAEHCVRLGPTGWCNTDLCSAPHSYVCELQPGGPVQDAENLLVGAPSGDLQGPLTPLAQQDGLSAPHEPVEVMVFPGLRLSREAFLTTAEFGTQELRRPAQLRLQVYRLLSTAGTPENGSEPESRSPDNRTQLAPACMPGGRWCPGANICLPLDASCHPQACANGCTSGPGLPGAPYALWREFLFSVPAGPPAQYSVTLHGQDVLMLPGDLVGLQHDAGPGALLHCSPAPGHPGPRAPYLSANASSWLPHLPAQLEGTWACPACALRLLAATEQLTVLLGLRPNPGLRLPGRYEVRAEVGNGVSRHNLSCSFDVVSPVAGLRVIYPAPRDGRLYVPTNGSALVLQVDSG

relative open probability at -100 mV, whole-cell patch clamp, HEK293 cells [1]: 0.3
whole-cell patch clamp current density at +180 mV, HEK293 cells co-expressing sPC-1pore and PC-2 F604P [1]: 71.1 pA/pF
Substance: sPC-1_(pore) (sPC-1 with R4100G, R4107G and H4111G) (from UniProt P98161 24-4303) (receptor)

outward whole-cell currents of HEK293 cells expressing PC-1deltaNT/PC-2 F604P with the fragment in the bath solution [2]: 65.5 pA/pF
Substance: PC-1 N-terminal fragment NTF^24-852 (from UniProt P98161 24-852) (domain or fragment)

relative open probability at -100 mV, whole-cell patch clamp, HEK293 cells [1]: 0.1
whole-cell patch clamp current density at +100 mV, HEK293 cells co-expressing sPC-1 and PC-2 F604P (PC-2 F604P alone gave negligible currents) [1]: 123 pA/pF
Substance: sPC-1 (human polycystin-1 with Ig kappa-chain secretion sequence and HA tag in place of its own signal peptide) (from UniProt P98161 24-4303) (receptor)

outward whole-cell currents of HEK293 cells expressing PC-1deltaNT/PC-2 F604P with the fragment in the bath solution (boiled fragment inactive) [2]: 61.4 pA/pF
probability of single channel openings at negative membrane potentials, excised inside-out patches of mIMCD-3 primary cilia, 0.7 ug/mL (~50 nM) fragment in the pipette [3]: 5 fold
spike-like elevations of ciliary Ca2+ (Arl13b-mScarlet-GCaMP6s, TIRF microscopy) in mIMCD-3 cells after the fragment; none in untreated cells, with boiled fragment or in PC-2 knockout cells [4]: > 0.35 ΔF/F
Substance: PC-1 N-terminal fragment NTF^263-535 (from UniProt P98161 263-535) (domain or fragment)
